Experimental data taken from the DeepSol protein solubility set.

Test: soluble on expression in E. coli; label from the status in PepcDB or PDB records

Sequence: MSYYLVQSTDEDILKHAECGGAVTAFFKYLLDKKLVDGVLALKKGEDVYDGLPYLVNDSKELVETCGSLHCAPTMFGNMISKHLKDMNLAVSVKPCDAMAIVELEKRHQIDKDKLYTIGLNCGGTVPPQTAKKMIELFYDVDPEDVIKEEIDKGKFIIELKDGSEKSVKIDELEEEGYGRRTNCQRCELKVPRNSDLACGNWGTEKGWTFVEVGSEKGEELLKNAQKEGYINVKAPSEKALEIRGKIEKSMINLGKKFQKEQLDEKYPEPEKWDEYWSRCIKCYGCRDVCPICFCKECALGEDYLDKGTIPPDPIMFQGIRLSHMSFSCINCGQCEDVCPVEIPLAKIYHRAQLKIRETTGFVPGIDDSMPFLYKLEHHHHHH
- soluble on expression in E. coli: not soluble

Sequence: MAHHHHHHMSVPDLTAEELAYYASLRLEDPDEAALATFLADLEQVHEDHPSDTGAAPSSTVASASGKRGALLTSSRVPACERLDSSDVEGVPPQRRVASVDRQQPSAYAATGLAIRQISAKLFPAPRSATTDSGTRYGVTQVLEKDNLVGGVAGIADAALQTRCVELPARQLTSIAPVQCFLNATHVYLQHNALADLEGVELLSQLQVLVVHHNQLTSLAPLQQLECLSYLDVSHNNVSSSVDVLLRDELPCPSLKSLNLSNNPCWSRCGEAVSDGDGGERHRAYVQQICTACPLLERLDDVVVDDGEEVMQHSDNSTESDVKDVAERRSASAAGAAPSQAGGITVRRVHNSVEAARAASSRACVHDIHTRSSLAPPGSLVSGEAELSARPPRSAQVNKARLLEEEQARLVHQLFLRRAVGTAPGSAKAVDTVSTSPLHSNRSSTGSGHFHPGDAATEAPTEQKANQPADSTGDVSALYSTRGDILHLYHSLQFTQEVSQARLQRDVAAHWDDVSRVLQTVQALQQDRRRRIQQRLQEQTSAYTDSLIMLEKESFTKDLDRYRNSDGSRRAAPAGIHAAASAPAAPPAVDTPNGITAVAHTSAAVDGNCASKASSTSTHPPEKPKGKTKKGPSVPKPPPRR
- soluble on expression in E. coli: not soluble

Sequence: MAHHHHHHMKFDKRECINVDLTSQISEQDVTQSVSKGEKKRDSLPQNEKESELSAEKESQMSQPKADEANLKRENSPLSEPNRKGTSVNKKNDCETSHTDKETNLKEYYKDLPTVIIVIGMAGSGKTTYVGSLYNYLKVEKKKKVYTMNLDPAVKYVQYPVNIDIRDSIKYHEIMKEYKLGPNGAIMTCLNLFATRFDKVIEILEKRKNKLHYIIVDTPGQIEVFNWSASGNIILETLSVSFPVVINYIIDTVRCERPITFMSNMLYACSVLYKARLPFLACFNKVDIIKHDKCIEWMKDYDSFNDDVIHDESYMASFSRSCALMINEFYEGIKTVGISSKTNEGFNSILKNLELLKEEYINEYVTSIEKQMKRIKRKKEKDIKLKMENLLIEKQKDLSSSKNKSVN
- soluble on expression in E. coli: not soluble

Sequence: MSLKSPPKKDEENVKINNMFKCGFYSFKGNRTYNEDRVIIIEDMNNFLKENIINNIKDMETPSYIYCAIYDGHNGDNAVNIVQKLLHIHMYYYFINGNGLENSLKYSFQEIDNYLCKNIINIKEENHSNYSSGTTACVSVIFKNMLYVANIGDSRCIISKNGRAIVLTVDHRASINKKEQDRILKSGGILDDEGYLGGCLGVCRGFGSFHKKTKEKLKGLICEPDLFHIKLTDDDEFLIICCDGIFDVITSQEAVNTVKNSLIQSRDAKTAAEALCQLAYKKKSLDNLSVLVVIFQNPDKEGHHHHHH
- soluble on expression in E. coli: soluble

Sequence: AVSSATLEMESQRDEVAGLVRLGLSQSFGTLHIIPAIQELRELYPQLQVEVHLFDYKVDMLAEGLDLWVTNNEHLPEGYIAQRLTDCQFVVAASPDYLLKYDTPTEPNDLSLHNCLIYRSWERDYTGWAFTKGQQELNVKVSGNYSVDLAEAVRDAAIAGWGIAYLATYLLGDEFRTGKLIQLLPDWKASQSMPFYAVYPSRQHMPKKISAVINFIKQKIGNPCHWDQRLAPYISIPK
- soluble on expression in E. coli: not soluble

Sequence: LEAVAPERPRCAYCSAEASKRCSRCQNEWYCCRECQVKHWEKHGKTCVLAAQGDRAK
- soluble on expression in E. coli: soluble

Sequence: MGSDKIHHHHHHMNPGWRVVDLIDFDGKVSYQRGQLAITSDSGELRATLPLAQIAVVLIGNKLIISGAVLVKLSEYDIAVLVCDWRRVPVAGSFSWNEHTRIAARQRAQASLSLPRQKSAWAQIIKAKILGQARTAAQLGFDATDLKNLARAVRSGDVDNREAMAAKRYWEIISAEDDFRRLPGLAATGWNGALDYAYTVLRGHGMRAICSAGLVGTLGVFHHGRGNQFALVDDLIEPFRPAIDYAVFSIVSNSQELDKETKRQLVAAVEEPFNSAGQSIPTVFTAFAQQYGRYVEGDVEKLVPPIWEGPFDAEER
- soluble on expression in E. coli: not soluble

Sequence: MSLIIYGYCRVSTKNQTDNNSLYQQQQEILNKYNDAKIIKETYTGTTTNRPKFEKIISSLKKGDLLVATKLDRLARSTSEGIQLIEGLFAKEVSVHILNIGLLENTSMGKFFLTTLLAVAELERNMIIERTQLGKEFAKKKKDFKDGRPKKYSNQQIQYALGLLNSKPYREVVKMTGISKSTLIRAKKSIEGHHHHHH
- soluble on expression in E. coli: soluble

Sequence: MFKRFRRLRLNENLRSMVRENSLSVNDLIYPLFVVNGTGIKKEISSMPDVFQMSLDEILKECQNVVNLGIKAIILFGVLENEKKDSCGSDALDDEGLVARSIREIKKNFPDLFIISDLCFCEYTDHGHCGIIDPKIKSVDNDATLEISAKQALVHARAGVDMIAPSGMMDGVITTLRKALDKEGFENLPIMAYSTKFASSYYGPFRDVAESAPSYGDRKSYQMDFANGKEALEESLEDEAQGADILMVKPALAYLDVVKEISLHSNLPLCIYNVSGEYAMLKAAKNAGVIDYEKVLYETIIAFKRAGAKLIITYHAKELAKMLKGEK
- soluble on expression in E. coli: soluble

Sequence: MSYRESRQRLERLTESPSHLTIWRRMQELSYESKFEYESFVSADGTKLHAKRSKKLDVKVIAGKSVIVGINESHREMRGEYDVKATVVGDADRDLSCF
- soluble on expression in E. coli: not soluble

Sequence: MGSDKIHHHHHHAQSKSSVYKPWSHGQLKVSKENRYLMNADGTPFFWLGDTGWLLPEKLNRDEAAYYLEHCRQAGFNVVQVQTINGVPAMNFYGQYSMIDGFNFKNIDRKGVYGYWDHMDYIIQKAEQNGIYIAMVCIWGGLVRSGKMNVEEAKAYGRFLGERYKDAPNIIWVIGGDTYADRNTEIWEALANSILAVDENHIMTFHPFGRTSSATHLNNKEWMDMNMFQSGHRRYGQKKGDGDTSVTGLEEDNWRYVEEALSMTPLKPVLDAEPSYEGIPQGLHDPAQPRWRDCDVRRYGYWSVFAGSCGHTYGHNNIMQFLKPGTPGGYGADGIEKPWYKAMQDPGFNQMKYLKNLMLTFPYFERVPDQSVIAGTNGNRYDRAIATRGKDYLLVYNYSGNPMSVDLTKISGAKKKVWWYSPKDGKLSFIGEFDSKITPFTYDGSYNRDNDQVLIAIDSSKNYISTEWLELPMVNQ
- soluble on expression in E. coli: not soluble

Sequence: MSFQQPQASPISPGDSGWLIKMRKNRYLDHTSKVNEPKKYRSMDQLPTGKVGAPDNEKSEGTDPLHWQLRKDFHLAKYSERRASYHVESSSYIHSSQQIQHPPQQHHPPPPSPPPVAETIQHQPHPSQQQPSTTTISSRQLYKSQLLYPPGSTENIASEHKPAIRPPEKSVYENNPIAPSELNVQVKRAPPQGPPPPPPPQAPADIDYPERLMSPPPTHQPRSILKGYSSQQYYSQTNLTESHHHQSSQETSLNPQQMHPRPSDRRTPTHFEDLSEDEKTRIMHENLQRHRNMRSGPNGPRPTTTSFNGPFFRLEQVNPGQNQPQQPQYQQHPRSQSVDPSGDMNGGPRPIHQNFSASEIELHHYSRNAEPSVVVWPPVSEKERERPSSVLAKNFNDPERIDEYQRQKRLEYEAIQRTNEKQAVSMAKQVNAMMQQQKLYERSHGMTSPVPIMESISPQPQVSHHHHQPQQHQQHQPQQQYYPSPPPPPQPYRDPEPVFNPVQVYETRPISALSDQIDQPPSQQAPTSWKRTYIVERPRDVAKNEIITSDQLLEKEAYDVDLLKRRETFVEKPEEAPRINRLGRRWQPPPERPYVWPTLRRAMSVEPSSMPVDFAPGVPHNYDDNEEYKWEPVVNDPGYKKEDKNFTPVNSPPASPRRGHGVGPLDEPARRQAKYVIQPSPDGSHRPKAVFRKERHAPSGGFYPHAPNAIKVVKKRAQSVQGLLSPTDNVEVIHQRNYHRLDLEQNGHHGQKLRRSQHGGSEMDLRRSTQEMPDWEKIYELPPHSSQIVQKDMPRHVDVQRRLSKFEGSIQNLRAATSTQHLDSMQQLHFPMPDYEPPQPPQQRRRTESSGYRGGPPPPPPMPQQQPREMSRRNSVASTRIDSPSLMIPHHRQSRSDSRGPPQMSRAASSIPLSPQPTPQHHHHHHSQRPTTPGATRARNYIARATAPSPTPYSYDRARAYVPPALPPGYRLADPIPDQRAMSPSPGHTRKLIRNVSESAQRLHPSGSTPQTSRAPSRHSHRQSPNPRFL
- soluble on expression in E. coli: not soluble

Sequence: MKKIDSAVAVEPAATVPKGRKNNPEKTREDILKAAVAEFVAHGLTGARVDAIAERTKTSKRMIYYYFGSKEQLYVEVLEKLYGAIRNTESELNLGELEPVEAIHRVVEFTFDHHDSNVDFVRIVCIENIHNGENVKQSDTIQAKSQNIIRALDGILRRGEASGLFRDGVHPVDLHLMISSFCFYRISNRHTFSEIFQIELWSEEVKQRHKAMICDAVLRYLKR
- soluble on expression in E. coli: not soluble

Sequence: MSEHLTLPTNKPQVTHFSSGPCAKHPGWSVSNLENACLGRSHRSEDGKAKLSEVIERSKQILGLPADYRLGIVPASDTGAVEMALWSLLGQRPLDILAWESFGQEWVKDVVDELKLPDVRLLKAPYGGLPNLDEVDFSHDVVFLWNGTTSGVRVPNGDWIKDDRQGLTICDATSAVFAMDIPWEKIDVLTYSWQKVLGGEAQHGVIVLSPRAVERLQTYEPAWPIPKIFRLSQKGKLIEGIFKGDTINTPSMLCVEDALDALIWAESVGGLPGLISRSEANLAAIAQWVKQSNWADFLAEKPETRSCTSICLKIVDAAFASLSAEDQGKFAKKLAKLLEKQQVAYDIAPYRAAPPGLRIWGGATVETADIEALLPWLDWAYANVKAEFVPVA
- soluble on expression in E. coli: soluble

Sequence: MQKKSQTAQSYHPMIKEFPEFYGPLTCPGQFLALLILEFGLNFAEIQKLKWENFNWNFKYLTIEKAGIKRVLPIREKFAIRVKAINNADELFAKSRQFLYTELKKFTNYSSKEIREQYILHQVKAGKSIYELATLLGLTTITTLEKYYRLEHHHHHH
- soluble on expression in E. coli: not soluble

Sequence: MGSTGETQITPTHISDEEANLFAMQLASASVLPMILKSALELDLLEIIAKAGPGAQISPIEIASQLPTTNPDAPVMLDRMLRLLACYIILTCSVRTQQDGKVQRLYGLATVAKYLVKNEDGVSISALNLMNQDKVLMESWYHLKDAVLDGGIPFNKAYGMTAFEYHGTDPRFNKVFNKGMSDHSTITMKKILETYTGFEGLKSLVDVGGGTGAVINTIVSKYPTIKGINFDLPHVIEDAPSYPGVEHVGGDMFVSIPKADAVFMKWICHDWSDEHCLKFLKNCYEALPDNGKVIVAECILPVAPDSSLATKGVVHIDVIMLAHNPGGKERTQKEFEDLAKGAGFQGFKVHCNAFNTYIMEFLKKV
- soluble on expression in E. coli: soluble

Sequence: MGSDKIHHHHHHMQDLNDIALFAAVVKHNGFSAAARDLNVPKSKLSKHVARLEEQLGVRLLERSTRKLRMTEVGRIFYEHAQGLLDGVAAAEAEIAAVRAEPTGVVRLACPIGFTPMLADILPAFHRRYPGVRLLITASNRRIDLIEERIDVALRARDQLDTDSQLIVRKFGEVRQRLAASPTLLARLGEITTDNLSQMPTLSMNEQHPNDVWRLVHATGGAIEIAHRPVVGCSDFLILERAAIEGMGIALLPDHICERAFRTGALVPVLPEWTSGNVMVHLVFPSRHGLLPATRALIDFLAENLIKALERCREVDPRPAASFEI
- soluble on expression in E. coli: not soluble
